Test results taken from the supplement of paper PMC9170038.

System: K4 kissing-loop RNA reporter
Test: apparent KD of K4 kissing-loop reporter; higher = weaker reporter binding
Conditions: Eterna round: R107
Procedure: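 RNA-MaP round R107: designed RNA switches with theophylline, tryptophan, arginine or FMN aptamers are transcribed on-chip within common flanks. They are titrated with a labelled K4 kissing-loop RNA reporter in RNA-MaP buffer (100 mM Tris pH 7.5, 80 mM KCl, 4 mM MgCl2), without ligand or with the indicated ligand. Median apparent KD per design.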

[1] = input ligand: theophylline 20 uM
[2] = input ligand: tryptophan 2.4 mM
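Note: bound reporter read as fluorescence of individual clusters on recovered sequencing chips by microscopy, with normalized cluster intensities fitted with a binding model.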

Row | Sequence | apparent KD of K4 kissing-loop reporter (input ligand: FMN 200 uM) [µM] | apparent KD of K4 kissing-loop reporter (input ligand: arginine 13.2 mM) [µM] | apparent KD of K4 kissing-loop reporter (input ligand: none) [µM] | apparent KD of K4 kissing-loop reporter [1] [µM] | apparent KD of K4 kissing-loop reporter [2] [µM]
1 | AGGUGCUACGGAAGGAGCGCACCAGUGAUGUUGGUGUGUGACCGUGACAUGGCAGUCAAGGUGCAGGUAGGUCGCCGUGGCCAUA [Rigela] | 0.138 | 0.135 | 0.14 | 0.156 | 0.136
2 | AGUAAUGAGUGAUGUUCAAUUAGUAAGGAUACCAGUAAUUCAAAAUGCCCUUGGCAGCUUAACGCUACCAAUAGAUUAAUAAUGG [First try - Theophylline A] | 0.128 | 0.18 | 0.119 | 0.182 | 0.0955
3 | AGUAGUUGGACGGCCGCCACUAGAACGCCUUUGCCAAAGGCAGAGGACUAGAGUGAUGUUCUAGCUAGGACCGGGUCCAACUACA [Omei KL Tryp B SS A v4] | 0.224 | 0.232 | 0.308 | 0.127 | 1.22
4 | AGUAGUUGGACGGCCGCCACUAGAACGGCUUUGCCAAAGGCAGAGCACUAGAGUGAUGUUCUAGCUAGGACCGGGUCCAACUACA [Omei KL Tryp B SS A v3] | 0.662 | 0.204 | 0.191 | 0.403 | 0.773
5 | AGUCCGCUCCAAGGAUAUAGUCCGGCUGCGCGUCAGUGAUGUUGAAGAAGUAUCGCGUCUCUAUAGCUAGAAGGUGGCGCAAUUG [theeternabot_sameState_KL_FMN_B_20] | 0.715 | 0.471 | 0.989 | 0.696 | 0.782
6 | AGUGAUAUAUGAGGAUAUGGGUUUGUUAAUGAGUUAUUUUUAGUGUUGUUUGGUUAGUGAUGUUAUUUAGAAGGCGUGAGUGAUG [rrwswwmjmullin] | 0.0937 | 0.0894 | 0.0819 | 0.111 | 0.0765
7 | AGUGAUGUUGUGUUAUGUUAGGGAAGUGAUCGAGGACCGGUACGGCCGCCACUCGAGUGAUGAGUGAGUGAUGUUUGUUUAGGGA [yytmullin] | 1.03 | 0.67 | 1.61 | 1.07 | 0.59
8 | AGUGCACUGUCAGGAUAUGUACAGUGAUGUUGUGUAUGUCAGCAAGUCAAAGACUUGCUCUUCUGUGCAGAAGGGACUGUGUACA [Omei KL FMN B Exc A v5] | 0.755 | 0.464 | 0.628 | 0.506 | 0.554
9 | AGUGGUGUAUCUUUUAAGAGUGAUGUUUUUCGAGGACCGGUACGGCCGCCACUCGAGUGAUGAGAGCGUCGUUGUGGUGAUUAGU [#15 K4 Tryptophan A Exclusion] | 0.814 | 0.582 | 0.877 | 0.86 | 0.479
10 | AUAGGAGUGAUGUUCCUUAGUUUCUCCGAUACCAGUAUGGAAACAUACCCUUGGCAGCGGGAAACCGCUGAUUAGGAAACUAGUC [Theophylline A K4 7] | 0.256 | 0.271 | 0.282 | 0.242 | 0.223
11 | AUCAUUGAGUGAUGUUCAAUGGGUUUUCCCAAGGAUAUUCGGAGCUGAAGAAGGUGGCCCUCGAUAUCAGUAUCAACCUGAAAGC [theeternabot_exclusion_KL_FMN_A_11] | 0.36 | 0.34 | 0.381 | 0.388 | 0.243
12 | AUCGAUAUCAGAGGAUAUGCUUAAUUGAUUUAUUAUUAUUUAUUAUGCAGUGAUGUUGCAUUUUUUGCAGAAGGCUGAUUUCGAA [JR_SSFMNB_Sub022] | 0.112 | 0.15 | 0.126 | 0.137 | 0.117
13 | AUGCGCGUGCGAUGAAAAUCGCACGCGCAUCGAGGACCGGUACGGCCGCCACUCGCUCGCGCCGAGUGAUGUUCGGCCGGCGAAC [#2 Same State - Tryptophan A Attempt #4 (HarryS)] | 0.278 | 0.268 | 0.267 | 0.217 | 0.506
14 | AUGGUGGAGGAGUGAUGUUCUUGGAGUAGGUAGGAUAUGAGUGAUGUUAGAAGGAUCGGAGUGAUGUUCCAGGUGGUUGUGUUGU [KL-SSFMN-A2] | 0.57 | 0.303 | 0.765 | 0.453 | 0.412
15 | AUGGUUGUCGUAGGAUAUGUAGGUAAUUCCUAUAGCAGUGAUGUUGCUAAUAUCUUGGAAGAAGGAACAGAAGGACGAUAACCAC [KL-SSFMN-B1 #analogue] | 0.123 | 0.109 | 0.124 | 0.109 | 0.106
16 | AUGUCUGAUAGCAGUGAUGUUGCUUCGGAUACCAGACGAGAUCAUGUCCCUUGGCAGCUGACACGGCACGUGCUAGGUUAGAUGA [whbob_Ex_Theo_A_th72] | 0.121 | 0.0983 | 0.115 | 0.116 | 0.113
17 | AUUAAUAACUGAGGAUAUCGUUUUACUGUAGUGAUGUUACAGAAAGUUCAAAUUAUAAUUUCUAUUCGAGAAGGCAGAAUAAUUA [JR_SSFMNB_Sub026] | 0.0777 | 0.0689 | 0.0535 | 0.0628 | 0.0481
18 | AUUAAUUUCAGAGGAUAUCGUUAUUUUAUUUAAUUUAUUCAUUUAUGCAGUGAUGUUGCUAUUAUUCGAGAAGGCUGAUUUAUAA [JR_ExcFMNB_Sub006] | 0.0821 | 0.0835 | 0.034 | 0.0704 | 0.0353
19 | AUUAAUUUCAGAGGAUAUCGUUAUUUUUUAUAUUUUAUUCAUUUAUGCAGUGAUGUUGCUAUUAUUCGAGAAGGCUGAUUUAUAA [JR_ExcFMNB_Sub004] | 0.0864 | 0.105 | 0.0449 | 0.1 | 0.0509
20 | AUUAUAUUGUGAAGGAGCGCGAAUAGCAGUGAUGUUGCUAUCAAACGAUAUAUUAUUUACACGCAGGUAGGUCGCACAAUAUAUA [JR_Nu_SSArginiB_Sub022] | 0.171 | 0.125 | 0.149 | 0.124 | 0.155
21 | AUUCACCUGUCGGCCGCCACUGCGUUAGCAGUAUCGGGCAGAAACUUCGCAGUGAUGUUGCGACUCAGGACCGGGACGUUGAGGA [theeternabot_exclusion_KL_Trp_B_29] | 0.445 | 0.406 | 0.468 | 0.454 | 0.504
22 | AUUCAGAUCUGAAGGAGCGCCUUGACAAAUUACUGCUUUGAGCAGUGAUGUUGCUCAAUUAGGCAGGUAGGUCGCAGAUCUAACC [Arg B Ex t7] | 0.377 | 0.335 | 0.414 | 0.383 | 0.389

Row | Sequence | apparent KD of K4 kissing-loop reporter (input ligand: FMN 200 uM) [µM] | apparent KD of K4 kissing-loop reporter (input ligand: arginine 13.2 mM) [µM] | apparent KD of K4 kissing-loop reporter (input ligand: none) [µM] | apparent KD of K4 kissing-loop reporter [1] [µM] | apparent KD of K4 kissing-loop reporter [2] [µM]
23 | AUUCUUAUAAUAACACUAUAUACAACUGAAGGAGCGACAAUAAAGUCAGGUAGGUCGCAGAAUAAAUGAGUGAUGUUCAUUUUUA [JR_ExcArginiA_Sub011] | 0.129 | 0.153 | 0.129 | 0.15 | 0.0868
24 | AUUGAACAAGUGAUGUUUGUAUUUUCCGAAGGAGCGUCUAAUAAGACAGGUAGGUCGCGGUUUCUCUUAAUAAUCAGGUCUUUAA [JR_Nu_ExcArginiA_Sub021] | 0.279 | 0.287 | 0.279 | 0.292 | 0.238
25 | AUUUAAUGUAUAGAUUAUAUACAUUAUUCAGAGGAUAUGCAUUGAAGCAGAAGGCUGGGUGUAGUGAUGUUGCAAUUUUAAUUUA [whbob_SS_FMNA__2th172] | 0.118 | 0.184 | 0.159 | 0.299 | 0.0841
26 | AUUUAAUUAACUGAUACCAGACUUUUUGUUUUGUUUAUUACUAGUGAUGUUAGUGUUUCUGUCCCUUGGCAGCAGAAUCUACUUA [JR_ExcTheophyB_Sub019] | 0.172 | 0.297 | 0.191 | 0.364 | 0.165
27 | AUUUAUUCGAGUGAUGUUCGUGAUUUUUCAGAGGAUAUGCGUAAUAGCAGAAGGCUGUAUUUAUAUAUAUUUUGAUUUUUUUAAA [JR_Nu3_ExcFMNA_Sub024] | 0.0822 | 0.122 | 0.0646 | 0.0994 | 0.0618
28 | AUUUUUUUGUCAGGAUAUUAGUGUGGGUUUGGUUUGUUAGUGAUGUUGAUAUUUGGUUUAUGUAUUUAAGAAGGGAUUUAGCGGU [frrvemullin] | 0.563 | 0.359 | 0.408 | 0.492 | 0.375
29 | CACGGAGUGAUGUUCCGACCGAGGAACGAUACCAGACAAGUAUACGUCCCUUGGCAGCGUUUCUUAUAUAGUCAACGUUACCGUA [Theo A Ex t3] | 0.395 | 0.469 | 0.507 | 0.537 | 0.405
30 | CAGAACUUAUAUAGAAACUAUAUAAGAGAUACCAGUCAAAUUAAAGACCCUUGGCAGCUCAGGCGAGUGAUGUUCGCAGGCUAAC [Astros-Gfrank-modulation#1] | 0.0993 | 0.0942 | 0.102 | 0.106 | 0.0788
31 | CAUACGCAUGGAGGAUAUGAGAUUACUCAUAUUAUUUAAUAUUCUCAGUGAUGUUGAGAUAUAAACUCAGAAGGCCAUGUGUAUG [Ex FMN B 1] | 0.184 | 0.152 | 0.143 | 0.166 | 0.153
32 | CAUAGACAAGUGAUGUUUGUCAUAACCGAAGGAGCGUCGUUGAAGACAGGUAGGUCGCGGAUUAAUUUAGAUUAUAUUCUUUUUA [JR_SSArginiA_Sub020] | 0.595 | 0.462 | 0.57 | 0.567 | 0.542
33 | CCAGGAUGAUGAGGAUGAUGAAUUACUGAAGGAGCGCAUAUGGUUGCAGGUAGGUCGCGGUGAAUAAGUAUAGUGAUGUUAUGCC [SSArgA.X] | 0.53 | 0.407 | 0.594 | 0.448 | 0.427
34 | CCAUCCGAGUCGGCCGCCACUUUGAGUGAUGUUUGGAGUCUGAGUCAACAUAAAUACUUAGUUUAAAGGACCGGGACUUCGGAUG [theeternabot_exclusion_KL_Trp_B_7] | 0.773 | 0.722 | 1.02 | 1.06 | 0.363
35 | CCAUCGCUAUUCGAUACCAGCUAAAUAUAAUAUAACCAGUGAUGUUGGUAUAUAAAUAUAAGCCCUUGGCAGCGAAUAGUGAUGG [Theophylline B K4 30] | 0.139 | 0.107 | 0.113 | 0.103 | 0.109
36 | CCAUCGCUAUUCGAUACCAGUCUACGUAGGAAACUACGUCUGCAAAGGAGUGAUGUUCCAGACCCUUGGCAGCGAAUAGUGAUGG [Theophylline B K4 5] | 0.969 | 0.689 | 0.792 | 0.589 | 0.9
37 | CCAUUCUUUUACGAUACCAGUCUAAUAUAUUGAAUCAAAACCCUCGCCGAGUGAUGUUCGGACCCUUGGCAGCGUCUGCGAGAGG [xwxxtkmullin] | 0.629 | 0.542 | 0.602 | 0.549 | 0.498
38 | CCCUCACGAGUGAUGUUCGUAGGGUACAGUCAGGAUAUCAUGCGGUUGAGAAGGGACAGAGAGGGCGGCGGCGGGUUGCUCAUCU [Isanausbe] | 0.197 | 0.217 | 0.325 | 0.266 | 0.215
39 | CCGAGCUACAGCGAUACCAGUGUGGAGUGAUGUUCCCUGGUCCGGGCUGUUGUUCCCUUGCGCCCUUGGCAGCGCAGAAGCAGCU [Exclusion Theophylline B GF 14] | 0.303 | 0.316 | 0.367 | 0.267 | 0.396
40 | CCGCUACCCUCAGGAUAUUAAAUAUUAGUGAUGUUAAUAAACCGAUGGCGAAAGCCAUCGGUAUGUUGAGAAGGGAGGGUAGCGG [whbob_SS_FMNB__2th196] | 0.145 | 0.593 | 0.767 | 0.549 | 0.635
41 | CCGGCCCGGCCGGAUACCAGUGCGCCGCUGGGAACUGCGGGCCCAGAGUGAUGUUCGGGACACCCUUGGCAGCCGCCUGGGUCGC [#2 Same State - Theophylline B Attempt #25 (HarryS)] | 0.45 | 0.345 | 0.562 | 0.359 | 0.439
42 | CCUAUCUCAUACGAUACCAGUCGUCGAGUGAUGUUCGAUUAAAUAUAUUUGCCAAAUAACGACCCUUGGCAGCGUAUGGGAUAGG [Ex Theophylline B K4 17] | 0.367 | 0.328 | 0.34 | 0.417 | 0.314
43 | CCUAUCUCAUACGAUACCAGUGAAUAACCAGUGAUGUUGGAAUAACCAAGGAAUAUUUUACACCCUUGGCAGCGUAUGGGAUAGG [Ex Theophylline B K4 25] | 0.274 | 0.239 | 0.305 | 0.27 | 0.269
